Test results as given in the nanobody polyreactivity screen of Harvey et al. (2022).

Test: yeast display, Sf9 membrane polyspecificity reagent, FACS + sequencing; frameworks hold sequencing errors
In short: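 Genes from sorted yeast were amplified by colony PCR, read by MiSeq 2 × 250 sequencing and filtered on CDR length. These cells carried a synthetic nanobody library in Saccharomyces cerevisiae BJ5465 and were sorted by FACS into low and high (top ~1%) gates on anti-HA and streptavidin fluorescence. Polyreactivity is labelled according to the gate of origin.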

Row | Sequence | polyreactivity (PSR sort gate)
1 | QVQLVESGGGLVQAGGSLRLSCAASGRTFFYYAMGSYRQAPGKERELVATITKRGGSTYYADSVKGRFTISRDNAKNTVYLQMNSLKPEDTAVYYCNAAGNPVSRYHYDYWGQGTQVTVSS | high polyreactivity
2 | QVQLVESGGGLVQAGGSLRLSCAASGSIIYRYVMGWYRQAPGKERESVAAISWRGTNTYADSVKGRFTISRDNAKNTVYLQMNSLKPEDTAVYYCAARKWDRYRDFEYWGQGTQVTVSS | high polyreactivity
3 | HVQLVESGGGLVQAGGSLRLSCAASGSIFVPNAMGWYRQALGKERELVAAITYSGGDTYYADSVKGRVTISRDNAMNTVYLQMNSLKPEDTAVYYCAADNGRVGYDYWGQGTQVTVSS | low polyreactivity
4 | QVQLVESGGGLVQAGGSLRLSCAASGMTFTSNVLGWYRQAHGKERELVAAISSGGSTYDADSVKGRFTMSRDNAKNTVYLQMNSLKPEDTAVYYCNSKLWGQYDYWGQGTQVTVSS | low polyreactivity
5 | QVQLVESGGGLVQAGGSLRLSCAASGSIFRYYAMGWYRQAPGKERELVADITSSGGSTYYADSVKGRFTISRDNAKNTVYLQMNSLKPEDTAVYYCASLYWFYVYPFTEYDYWGQGTQVTVSS | low polyreactivity
6 | QVQLVESGGGLVQAGGSLRVSCAASGSTFRKYAMGWYRQAPGKEREFVAAITSSGGSTYYADSVKGRFTISRDNAKNTLYLQMNSLKPEDTAVYYCAARGDSVSTAYNYWGQGTQVTVSS | high polyreactivity
7 | QVQLVESGGGLVQAGGSLRLICAASGSTFELYAMGWYRQAPGKEREFVAAITYDSTYYADSVKGRFTISRDNAKNTVYLQMNSLKPEDTAVYYCAAAYWHYYYGWDMYYWGQGTQVTVSS | high polyreactivity
8 | QVQLVESGGGLVQAGGSLRLSCAASGIFSNYAMGWYRQAPGKERELVAAIRSRSGTTYYADSVKGRFTISRDNAKNTVYLQLNSLKPEDTAVYYCDAGGKSRSYYWGQGTQVTVSS | high polyreactivity
9 | QVQLVESGGGLVQAGGSLRLSCAASGSTFVPYAIGWYRQAPGKERELVASITYSGGSTSYADSVKGRFTISRDNAKNTVYLQMNSLKPEDTAVYYCAAVPWVVYSGYDYWGQGTQVTVSS | low polyreactivity
10 | QEQLQESGGGLVQAGGTLRLSCSASGTISPLPAMGWYRQSPGKEREFVAGIDTGAITNYADSVKGRFTISRDNAKNTVYLQMNSLKPEDTAVYYCAVFPAAYDYYERYYTYWGQGTQVTVCS | low polyreactivity
11 | QVQLVQSGGGLVQAGGILRLSCAASGRTFSTNAMGRYIQAPGKERQLVAAITYGSSSTYYADSVKGRFTISRDNAKNTVYFKMNCLKPEDTAVYDCAAGGFFTHRRTYGYWGQGTQVTVSS | high polyreactivity
12 | QVQLVESGGGLVQAGGSLRLSCAASGRIFYGYVMGWYRQAPGKERELVAAISWSAGRTYYADSVKGRFTISRDNAKNTVYLQMNSLKPEDTAVYYCAARYFSLYVWSTFEYWGQGTQVTVSS | high polyreactivity
13 | QVQLVESGGGLVQAGGSLRLSCSASGFTFYYAMGWYRQAPGKERELVAAITSSGTTYYADSVKGRFTISRDNAKNTVYLQMHSLKPEDTAVYYCNAVRWSKYAFYDYWGQGTQVTVSS | high polyreactivity
14 | QVQLVESGGGIVQAGGSLRLSCAASGRIFGHYAMGWYRPAPGKERELVAAITKNGDSTYYADSVKGRFTISRDNAKNRVYLPMNSLKPEDTAVYYCNAVYDLVCGEGYDSWGQGTQVTVSS | low polyreactivity
15 | QVQLVESGGGLVQAGGSLRLSCAASGSTFYTYTMGWYRQAPGKERELVAAITWSGGSTYYADSVKGRFTISRDNAKNTVYLQMNSLKPEDTAVYYCNADQDYQGARPSGMDYWGQGTQVTVSS | low polyreactivity
16 | QVQLVESGGGLVQAGVSLRLSCAASGTTFGLNPMGWYRQAPGKERELVAAISTSGGSTYYADSVKGRFTISRDNAKNSVYLQMISLKPEDTAVYYCAAEVDAGYDYSQYYYWGQGTQVTVSS | low polyreactivity
17 | QVQLVESGGGLVQAGGSLRLSCAASGFILPYYAMGWYRQAPGKERELVAAISDTGRTNYADSVKGRFTISRDNAKYTVYLQMNSLKPEDTAVYYCAARYYSPRYWFRYDSWGQCTQVTVSS | high polyreactivity
18 | QVQLVESGGGLVQAGGSLRLSCAASGRILGYYAMGWSRQAPGKEREFVAAITTRGGNTYYADSVKGRFTISRDNAKNTVYLQMNSLKPEDTAVYYCAAESYTYRDAPTYFTRMYYWGQGTQVTVSS | high polyreactivity
19 | QVQLVESGGGLVQAGGSLRLSCAASGSTFAVNVMGWYRQAPGKERELVATITYRDGRTYYADSVKGRFTISRDIAKYTVFLQMNSLKPEDTAVYYCAADDEYTQEAEMDSWGQGTQVTVSS | low polyreactivity
20 | QDQLVESGGGLVQAGGSLRLSCAASGLIFKYNAMGWSRQAPGKERELVADINRSGGSTYYADSVKGRFTISRDNSKNTVSLQMNSLKPEDSAVYDCAAERVSLYWVIFGYWGQGTQVTVSS | low polyreactivity
21 | QVQLVESGGGLVQAGGSLRLSCAASGRTFYKYAMGWYRQAPGKERELVAAINRIGGRTYYADSVKGRFTISRDNAKNTVYLQMNSLKPEDTAVYYCAAEFVGDNRHGYWGQGTQVTVSS | high polyreactivity
22 | QVQLVESVGGLVQAGDSLPLSCAPSAYIFRAYAMGWFRQAPGKASELVAAISSRGGSTYYADSVKGRFTISRDNATQTVYLQMNSLKPEDTAVYYCAAAYRQPYIGYGYWGQGTQVTVTS | high polyreactivity

Row | Sequence | polyreactivity (PSR sort gate)
23 | QVQLVESGGGLVQAGGSLRLSCAASGRIFDYYAMGWYRQAPGKERELVASISRSGGSTYYADSVKGRFTISRDNAKNTVYLQMNSLKPEDTAVYYCAAVRYITKEFYWGQGTQVTVSS | high polyreactivity
24 | QVQLVESGVGLVQAGGSLRLSCAASGNTISYNAMGWSRQAPGKERELVAAIRWSGGSTNYADSVKGRFTISRDNAKNTVYLQMNSLKPEDTAVYYCNARYASTNYGWISYYWGQGNQVTVSS | high polyreactivity
25 | QVQLVESGGGLVQAGGSLRLSCDASGTLSPYAMGWYRQAPGKERELVAVITSNTGRTYADSVKGRFTISRYNSKNTVYLQKNTLNPQDTAFFYCYWGQGTQVTVTS | low polyreactivity
26 | QVQLVESGGGLVQAGGSLRLSCAASGRTFVRYTMGWYRQAPGKERELVAAISGSGSSTFYADSVKGRFTISRDNAKNTVYLQMNSLKPVDTAVYYCAARVRRVARDPYDYWGQGTQVTVSS | high polyreactivity
27 | QVQLVESGGGLVQAGGSLRLSCAASGRIFLYNAMGSYRQAPGKVRELVASISSGVTTNYADSVKGRFTISRDNAKKTVYLQMNSLKPEDTAVYYCAADGQYSVIVKYDSWGQGTQVTVSS | low polyreactivity
28 | QVQLQERGGGLVQAGGSLRLSCAASGYISHADEKGWYRQAPGKEHELVASISNGGCTNYADSEKGRFTISRDNAKNTLYLQMNSLKSEDTAVYYCAAWTGQVDIHYYWGQGTQVTVSS | low polyreactivity
29 | QVQLVESGGGLVQAGGSLRLSSAASGITFERNGMGWYRQAPGKERELVAAIRSGGSTYYADSVKGRFTISRDNAKITVYLQMNSQKPEDTAVYYCAAVTQGGYTYLGDYWGQGTQVTVSS | low polyreactivity
30 | QVQLVESGGGLVQAGGSLRLSCAASGLTFGVYAMGWSRQAPGKERELVAAIDLSDDITYYADSVKGRFTISRDNAKNTVYLQMNSLKPEDTAVYYSAAEYYLYSTYTVSYWKYDYWGQGTQVTVSS | high polyreactivity
31 | QVQLVESGGGLVQAGGSLRLSCAASGSTFRSYTMGWYRQAPGKERELVAAISGRGGSTYYADSVKGRFTISRDNAKNTVYLQMNSLKPEDTAVYYCAAPYWKRVAWGFDYWGQGTQVTVSS | high polyreactivity
32 | QFQLVESGGGLVQAGGSLRLSCAASGLTFSWYVMGWYRQAPGKERELVAAITNGGNTNYADSVKGRFTISRDNAKNTVYLQMNCLKPEDTAVYYCAARDPYTWPRSGSGYYEFDYWVQGTQVTVSS | low polyreactivity
33 | QVQLVESGGGLVQAGGSLRLSCAASGSTYTHNTMGWYRQAPGKERELVAAISKSGGRTYYADSVKGRFTISRDHAKNTVYLQMNSLKPEVTAVYYCAARVTGVGDYYWGQGTQVTGSS | high polyreactivity
34 | QVQLQESGGGLVQAGGSLLSCAASGTISWVDEMGWYRQAPGNERELVAGIAGGGNTNYADSVKGRFTISRDNAKNTVYLQMNSLDTAVYSCAVVGFGRGTHIYWGQGTQVTVSS | high polyreactivity
35 | QVQLVETGGGLVQAGGSLRLSCASSGFTLRVNDMGWYRQAPGKERELVAGITVSGGSTYYADSVKVRFTISRDNAKNTVYLQMNSLKPEDTAVYYCNADNYENATVMDYWGQGTQVTVSS | low polyreactivity
36 | QVQLVESGGGLVQAGGSLRLSCAASGIIFSTYAMGWYRQAPGKERELVAAISYGGGSTYYADSVKGRFTISRDNEKNTVYLQMNSLKPEDTAVYYCAADSYRAYYYWGQGTQVTVSS | high polyreactivity
37 | QVQLVESGGGLVQAGGSLRLSCAASGRTFIANAMGWYRQAPGKERELVAVITLNGGSTYYADSVKGRFTISRDNAKNTVYLQMNSLKPEDTAVYYCAAGRYYKLRATHGYWGQGTQVTVSS | low polyreactivity
38 | QVQLVESGGGLVQAGGSLRLSCAASGRTLRKYAMGWYRQAPGKERELVAAISSSGGNTYYADSVKGRFTISRDNAKNTVYLQMNSLKPEDTAVYYCAAGFYYPTARVGYYYWGQGTQVTVSS | high polyreactivity
39 | QVQLVESGGGLVQAGGSLRLSCAASGSIFRLNAMGWYRQAPGKERELVARIDSSGSTNYADSVKGRFTISRDNAKNTVYLQMNSLKPEDTAVYYCAAGLVLIVGMDSWGQGTQVTVSS | low polyreactivity
40 | QVQLVESGGGLVQAGGSLRLSCAASGFTFGVYAMGWYRQAPGKERELVATISSSGSTNYADSVKGRFTISRDNAKNTVYLQMNSLKPEDSAVYYCAVYYLYRRRQYYYWGQGTKVTVSS | low polyreactivity
41 | QVQLVESGGGLVQAGGSLRLSCAASGITLNRNAMGWYRQAPGKERELVAAISSGGNTYYADSVKGRFSISRDNAKNTVYLQMNSLKPEDTEVYYCAARQVQAPRSIGFYFWGQGTQVTVSS | high polyreactivity
42 | QVQLVESGGGLVQAGGSLRLSCAASGGIFVRYAMGWYRPAPGKERELVAAISSSGDRTYYADSVKGRFTISRDTAKNTVYLQMNSLKPEDTAVYYCNADRGHDKVDYWGQGTQVTVSS | low polyreactivity
43 | QVQLEESGGGLVQAGGSHRLSCAASGRTFGAYAMGWYLQAPGKEREVVAAITYRGASTYYADSVKGRFTISRDNAMYTVYLQMNSLITEDTAVYSCAAEGSIKYFVGYNWGYNYWGQGSQVTVSS | low polyreactivity
